Test results reported in the Immune Epitope Database (IEDB).

What was measured:
[1] = biological target: HLA-B*07:02; test: IEDB peptide-MHC binding, purified MHC/competitive/radioactivity; ≥ and ≤ were set here for values at or beyond the usual limits of such assays; details: source organism: Toxoplasma gondii
[2] = biological target: HLA-A*11:01; test: as above; details: source organism: Toxoplasma gondii
[3] = biological target: HLA-A*02:01; test: as above; details: source organism: Toxoplasma gondii
[4] = biological target: HLA-B*46:01; test: IEDB peptide-MHC binding, purified MHC/direct/fluorescence; filed as Kd, often an IC50 or EC50 that approximates it; ≥ and ≤ were set here for values at or beyond the usual limits of such assays
[5] = biological target: HLA-B*27:05; test: as above; details: source organism: Camelpox virus M-96
[6] = biological target: HLA-A*01:01; test: as above; details: source organism: Camelpox virus M-96
[7] = biological target: HLA-A*31:01; test: as above; details: source organism: Camelpox virus M-96
[8] = biological target: HLA-A*26:01; test: as above; details: source organism: Variola virus
[9] = biological target: HLA-B*15:09; test: as above; details: source organism: Variola virus
[10] = biological target: HLA-B*39:01; test: as above; details: source organism: Variola virus
[11] = biological target: HLA-B*40:01; test: as above; details: source organism: Camelpox virus M-96
[12] = biological target: HLA-A*80:01; test: as above; details: source organism: Camelpox virus M-96
[13] = biological target: HLA-B*48:01; test: as above; details: source organism: Camelpox virus M-96
[14] = biological target: HLA-B*58:01; test: as above
[15] = biological target: HLA-B*57:01; test: as above; details: source organism: Camelpox virus M-96
[16] = biological target: HLA-B*15:01; test: as above
[17] = biological target: HLA-A*02:01; test: as above; details: source organism: Camelpox virus M-96
[18] = biological target: HLA-A*69:01; test: IEDB peptide-MHC binding, purified MHC/competitive/fluorescence; filed as Kd, often an IC50 or EC50 that approximates it; ≥ and ≤ were set here for values at or beyond the usual limits of such assays; details: source organism: Taterapox virus
[19] = biological target: HLA-A*03:01; test: as above; details: source organism: Taterapox virus
[20] = biological target: HLA-B*15:17; test: as above
[21] = biological target: HLA-A*11:01; test: as above; details: source organism: Taterapox virus
[22] = biological target: HLA-B*40:13; test: as above; details: source organism: Escherichia coli B171
[23] = biological target: HLA-B*39:01; test: as above; details: source organism: Escherichia coli B171
[24] = biological target: HLA-B*45:06; test: as above
[25] = biological target: HLA-B*15:42; test: as above
[26] = biological target: HLA-B*40:01; test: as above; details: source organism: Escherichia coli B171
[27] = biological target: HLA-B*83:01; test: as above
[28] = biological target: HLA-A*32:07; test: as above
[29] = biological target: HLA-B*15:02; test: IEDB peptide-MHC binding, purified MHC/direct/fluorescence; filed as Kd, often an IC50 or EC50 that approximates it; ≥ and ≤ were set here for values at or beyond the usual limits of such assays; details: source organism: Convict Creek 107 virus
[30] = biological target: HLA-B*35:01; test: as above; details: source organism: Salmonella enterica subsp. enterica serovar Typhi
[31] = biological target: HLA-B*44:02; test: IEDB peptide-MHC binding, purified MHC/competitive/fluorescence; filed as Kd, often an IC50 or EC50 that approximates it; ≥ and ≤ were set here for values at or beyond the usual limits of such assays; details: source organism: Salmonella enterica subsp. enterica serovar Typhi
[32] = biological target: HLA-B*57:01; test: as above; details: source organism: Salmonella enterica subsp. enterica serovar Typhi
[33] = biological target: HLA-A*32:15; test: as above; details: source organism: Mycobacterium tuberculosis variant bovis BCG str. Pasteur 1173P2
[34] = biological target: HLA-A*68:23; test: as above; details: source organism: Mycobacterium tuberculosis variant bovis BCG str. Pasteur 1173P2
[35] = biological target: HLA-B*35:01; test: as above; details: source organism: Mycobacterium tuberculosis variant bovis BCG str. Pasteur 1173P2
[36] = biological target: HLA-B*51:01; test: as above; details: source organism: Mycobacterium tuberculosis variant bovis BCG str. Pasteur 1173P2
[37] = source organism: Camelpox virus M-96
[38] = source organism: Escherichia coli B171
[39] = source organism: Convict Creek 107 virus
[40] = source organism: Salmonella enterica subsp. enterica serovar Typhi
[41] = source organism: Mycobacterium tuberculosis variant bovis BCG str. Pasteur 1173P2

AVVSLLRLLK
IC50 [1]: ≥ 50000 nM
IC50 [2]: 6.5 nM
IC50 [3]: 11300 nM

NTDAFSREY
Kd [4, 37]: ≥ 20000 nM
Kd [5]: ≥ 20000 nM
Kd [6]: 7 nM
Kd [7]: ≥ 20000 nM
Kd [8]: 984 nM
Kd [9]: ≥ 20000 nM
Kd [10]: ≥ 20000 nM
Kd [11]: ≥ 20000 nM
Kd [12]: 567 nM
Kd [13]: ≥ 20000 nM
Kd [14, 37]: ≥ 20000 nM
Kd [15]: ≥ 20000 nM
Kd [16, 37]: ≥ 20000 nM
Kd [17]: ≥ 20000 nM
Kd [18]: ≥ 20000 nM
Kd [19]: ≥ 20000 nM
Kd ([20]; source organism: Taterapox virus): ≥ 20000 nM
Kd [21]: ≥ 20000 nM

HELSLFWPL
Kd [22]: 30.2 nM
Kd [23]: 0.2 nM
Kd [24, 38]: ≥ 5000 nM
Kd [25, 38]: ≥ 5000 nM
Kd [26]: 2.5 nM
Kd [27, 38]: ≥ 5000 nM
Kd [28, 38]: 58.2 nM

VLFKTESGF
Kd [4, 39]: ≥ 20000 nM
Kd [29]: 47 nM
Kd [16, 39]: 11.8 nM

IVLLCYGGW
Kd [30]: 2530 nM
Kd [16, 40]: 6180 nM
Kd [31]: ≥ 20000 nM
Kd [20, 40]: 175 nM
Kd [32]: 498 nM

MTMITPPTF
Kd ([14]; source organism: Mycobacterium tuberculosis): 51.3 nM
Kd [33]: 19.2 nM
Kd [34]: 4.4 nM
Kd [24, 41]: ≥ 5000 nM
Kd [25, 41]: ≥ 5000 nM
Kd [27, 41]: ≥ 5000 nM
Kd [35]: 111 nM
Kd [28, 41]: 9.3 nM
Kd [36]: ≥ 20000 nM
